Legend:
[1] = test system: A2780 sensitive and cisplatin resistant EOC cells; experiment: TACS MTT cell viability in A2780 cells; assay type: cell-based, human; details: Abciximab combined with cisplatin, CI<1 indicates synergism, FIGS. 1B-1D
Description: FIGS. 3A-3E. Cell viability in A2780 sensitive and cisplatin resistant EOC cells after treatment with integrin αV and integrin β1 antibody. (FIG. 3A) A2780 chemosensitive and (FIG. 3B) cisplatin resistant EOC cells were treated with or without integrin αV and integrin β1 antibody alone or in combination and viability was assessed using the TACS MTT Cell Proliferation Assay.
FIGS. 4A and 4B. Integrin αV and integrin β1 antibodies cross-react with a potential soluble target in EOC cell media. To test whether media collected from A2780 EOC cells contains a target that cross-reacts with the integrin αV or integrin β1 monoclonal antibodies, cells were cultured for 48 hours followed by removal of media. Either mouse anti-integrin αV or mouse anti-integrin β1 antibody was incubated with the conditioned cell culture media for 24 hours to block the antibody with the unknown target. […]
(§1) Cell viability was determined using the TACS MTT Cell Proliferation Assay (Trevigen, Gaithersburg, Md.) per the manufacturer's protocol. […] Absorbance was measured at 570 nm. […] A standard curve was constructed utilizing the OD readings correlating with each standard point and was utilized to determine cell number in the test samples.
Cell Viability was Determined Using the TACS MTT Cell Proliferation Assay (Trevigen, Gaithersburg, Md.) per the manufacturer's protocol. […]

[2] = test system: sensitive EOC cell lines, their Taxotere or Cisplatin resistant counterparts and colon, endometrial, lung, prostate, bladder, hepatocellular cancer cell lines; experiment: TACS MTT cell viability, Abciximab in cancer versus non-cancer cells; assay type: cell-based, human; details: increasing doses of Abciximab; cancer cells compared to non-cancer cells; FIG. 1A
Description: FIGS. 1A-1E. Anti-cancer effects of Abciximab and NIF. (FIG. 1A) Anti-cancer effects of Abciximab in sensitive EOC cell lines (A2780, MDAH-2774, SKOV-3, OV90, TOV21G, OV112D, OV433, and HTB-161) and their Taxotere or Cisplatin resistant counterparts, human macrophages, and other cancer cell lines including colon (HTB-37), endometrial (CRL-1671), lung (CCL-257), prostate (CRL-1740), bladder (HTB-4), and hepatocellular (HB-8065) cancers, in vitro. (FIG. 1B) The combined effect of Abciximab alone or in combination with Cisplatin in both sensitive A2780 and their (FIG. 1C) Cisplatin resistant counterpart in vitro. […] (FIG. 1E) Anti-cancer effects of NIF in both sensitive A2780 and their Cisplatin resistant counterpart in vitro.
as §1, with “protocol. Briefly, measurement of cell proliferation is based upon the reduction of the tetrazolium salt, 3,[4,5-dimethytthiazol-2-yl]-2,5-diphenyl-tetrazolium bromide (MTT). MTT is reduced to an insoluble formazan dye by mitochondrial enzymes associated with metabolic activity of living cells.” for “protocol.”, “samples. […]” for “samples.”

B1: Abciximab (antibody, chains of the INN, looked up, V domains shown)
VH: EVQLQQSGTVLARPGASVKMSCEASGYTFTNYWMHWVKQRPGQGLEWIGAIYPGNSDTSYIQKFKGKAKLTAVTSTTSVYMELSSLTNEDSAVYYCTLYDGYYVFAYWGQGTLVTVSA
VL: EIVLTQSPVTLSVTPGDSVSLSCRASRDISNNLHWFQQTSHESPRLLIKYASQSMSGIPSRFSGSGSGTDFTLSINSVETEDFGMYFCQQTNSWPYTFGGGTKLEIK
modifications: Fab
[1]
  effect of combination with cisplatin: synergistic effect
[2]
  anti-cancer activity (cell viability): significant
